The results in this text go back to publication PMC12748981.

Usually Kd stands for the equilibrium constant for the complex coming apart. A high value points to lower affinity.

The assay deals with GST-NUPR1 (UniProt O60356). Put plainly: SPR. The following applies: VHH.
Sequence of UniProt O60356 (O60356 whole entry): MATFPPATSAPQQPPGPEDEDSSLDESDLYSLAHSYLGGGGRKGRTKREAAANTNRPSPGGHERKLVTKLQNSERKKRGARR

As to “sdAb#07.81-3xFlag-cOdc1-Tat-6xHis (from UniProt P00860)”, the Kd was found to be 307 nM.
